Results from article PMC6089408.

Target: Arabidopsis thaliana HAPLESS 2 ectodomain (AtHAP2e; aa 25-494) (Arabidopsis thaliana) (UniProt F4JP36)
Assay: crystal structure; AtHAP2e set to crystallize as a monomer; hanging drop, 293 K, 100 mM sodium citrate pH 4.5, 200 mM zinc acetate; space group P6_(3)

stoichiometry N: 3
Substance: Arabidopsis thaliana HAPLESS 2 ectodomain (AtHAP2e; aa 25-494) (from UniProt F4JP36 25-494) (domain or fragment)
